In patent US12297265B2, “Antibody and use thereof” (SICHUAN KELUN-BIOTECH BIOPHARMACEUTICAL CO., LTD., priority 2018, dated 2025):
Marks after values point to notes of the source that are not given here.

Experiments:
Ba/F3-Claudin 18.2 cells = assay: ADCC activity on Ba/F3-Claudin 18.2 cells (NK-92MI_mCD16, CytoTox-Glo); format: cell-based; conditions: Ba/F3-Claudin 18.2 target cells, NK-92MI_mCD16 effector cells, 6h
Protocol: In order to evaluate the ADCC activity, ten thousand Ba/F3-Claudin18.2 cells were cultured in 40 μl NK-92 media. Antibodies were serially diluted in 10 μl PBS. Fifty thousand NK-92MI_mCD16 cells in 50 μl NK-92 media were added and the reactions were incubated at 37° C. for 6h. 33.3 μl CytoTox-Glo (Promega, G9290) was added to each reaction […].

[1] = test system: HEK293T-Claudin 18.2 cells; assay: CDC killing of HEK293T-Claudin 18.2 cells (guinea pig serum, CCK8); format: cell-based; conditions: 20% guinea pig serum, 3 h
Protocol: The procedure is described as follows: HEK293T-Claudin 18.2 cells were harvested and centrifuged followed by adjustment of cell density. 5×10^4/well of cells were plated on a plate and incubated overnight. […] Starting from 20 μg/mL, 10 concentrations were prepared with two-fold dilution. The original cell culture media for HEK293T-Claudin 18.2 cells was removed, and the antibody dilutions were added to the corresponding wells, 100 μL/well. 10 μl/well lysis buffer was provided as the positive control. The reactions were left to stand in incubator at 37° C., 5% CO2 and incubated for 3 h. Then, CCK8 (Rhinogen, QDY-003-D) was added at 20 μl/well and allowed to react for 2h. Absorbance at 450 nm were taken on a plate reader (MD, SpectraMax M2). The results were subjected to curve fitting by Graphpad Prism.

L929-Claudin 18.2 cells = assay: NK cell mediated ADCC on L929-Claudin 18.2 cells (LDH); format: cell-based; conditions: L929-Claudin 18.2 target cells, NK92MI-CD16a effector cells
Protocol: The steps were as follows: HEK293T-Claudin 18.2, L929-Claudin 18.2, KATOIII-Claudin 18.2 and NUGC-4 cells were harvested and centrifuged followed by adjustment of cell density. 1×10^4/well of cells were plated on a plate and incubated overnight. The medium was removed on the next day. NK92MI-CD16a cells (Huabo Biopharm) were centrifuged, resuspended in MEMA medium and adjusted to 1×10^6/mL, then 50 μL/well cells were added to the corresponding wells. […] For HEK293T-Claudin18.2, L929-Claudin18.2 and KATOIII-Claudin18.2 cells, ten antibody concentrations were tested, starting from 40 μg/mL with 5-fold dilution. For NUGC-4 cells, eleven antibody concentrations were tested, starting from 2 mg/mL with 5-fold dilution. 50 μL/well of the diluted antibodies were added to the corresponding wells and the reactions were left to stand in incubator at 37° C., 5% CO2 and incubated for 5.5h. Lysis buffer was then added to the positive control well and incubated for another 0.5h. 50 μL/well of Lactate Dehydrogenase (LDH) detection agent (DOJINDO LABORATORISE, CK12) were added to the wells and the absorbance at 490 nm were taken every 10 min on a plate reader (MD, SpectraMax M2). The results were imported into Graphpad Prism for curve fitting.

human Claudin18.2 [2] = target: T1, human Claudin18.2 (Homo sapiens, UniProt P56856); assay: FACS positive rate of NUGC-4 cells; format: binding; set-up: cell lines endogenously expressing human Claudin18.2; host or cells: NUGC-4 human gastric cancer cell line; conditions: NUGC-4 cells endogenously expressing human Claudin18.2, FACS
Protocol: To determine binding affinity of the candidate antibodies to cell lines endogenously expressing human Claudin18.2, FACS analysis was performed to detect human Claudin18.2 expression level on NUGC-4 cells (purchased from Japan JCRB cell bank, catalog number: JCRB0834) which endogenously expresses human Claudin18.2. […] The binding affinity between candidate antibodies and NUGC-4 cells was then determined by Cellular ELISA following the same protocol as above.

human Claudin18.2 [3] = target: T1, human Claudin18.2; assay: FACS affinity of chimeric antibodies to Ba/F3-Claudin18.2 cells; format: binding; set-up: expressed in transfected cells; host or cells: Ba/F3 (BaF/3, DSMZ ACC300), hygromycin-selected monoclonal line
Description: The amino acid sequence of the light chain variable region of 1E9.2, 2C6.9, 6B9.22, 9C8.1, 16A9.11, 19G10.14 or 19H11.6 was linked to the amino acid sequence of the light chain constant region κ (SEQ ID NO: 43) respectively; the amino acid sequence of the heavy chain variable region was linked to the amino acid sequence of IgG1 heavy chain constant region (SEQ ID NO: 42) respectively, to construct the chimeric antibody. Codon optimized cDNA was synthesized and cloned to pcDNA3.4 (synthesized by Nanjing Genscript Biotech Corporation). The pcDNA3.4 plasmids coding the light chain and heavy chain of each antibody were co-transfected to Expi293F cells (purchased from Thermo Fisher). The antibodies were purified from culture supernatant by protein A (MabSelect SuRe, GE). And the purified chimeric antibodies were named 1E9.2-hz00, 2C6.9-hz00, 6B9.22-hz00, 9C8.1-hz00, 16A9.11-hz00, 19G10.14-hz00 and 19H11.6-hz00.
The affinity of the anti-Claudin18.2 chimeric antibodies to Ba/F3-Claudin18.2 cells were determined. […] The cells were then analyzed by FACS.

human Claudin18.2 [4] = target: T1, human Claudin18.2; assay: Affinity of chimeric and humanized antibodies to Ba/F3-Claudin 18.2 cells (IntelliCyt); format: binding; set-up: expressed in transfected cells; host or cells: Ba/F3 (BaF/3, DSMZ ACC300), hygromycin-selected monoclonal line
Description: In order to evaluate the anti-Claudin18.2 humanized antibodies, codon optimized cDNAs of the heavy chains and the light chains of the candidate humanized antibodies from Example 6 were synthesized and ligated into pcDNA3.4 (by Nanjing Genscript Biotech Corporation). Expi293F cells (purchased from Thermo Incorporation) were co-transfected with pcDNA3.4 coding the heavy chain and light chain of each antibody. The antibodies were purified from the supernatant using protein A (MabSelect SuRe, GE). The affinity of the humanized antibodies to Claudin18.2 was determined using Ba/F3-Claudin18.2 cells which over-expressed human Claudin18.2. Ba/F3-Claudin18.2 cells (60000 in 10 ul buffer) were incubated with purified humanized antibodies on ice for 30 min, followed by washing with buffer (PBS+2% FBS) twice and addition of Alexa647-labeled goat-anti-human IgG Fc antibody (1:500 dilution). The cells were incubated on ice for another 30 min and analyzed by IntelliCyt.

NUGC-4 cells tested positive for Claudin 18.2 (human Claudin18.2 [2]): 20%
Max MFI (human Claudin18.2 [3]): 8.97 ×10^6
Max MFI (human Claudin18.2 [4]): 4.99* ×10^6
Substance: IMAB362: Zolbetuximab (IMAB362) developed by Astellas, human-mouse chimeric IgG1 antibody targeting Claudin 18.2; control antibody, sequences from CN 101312989 B [reference compound]
ADCC EC50 (Ba/F3-Claudin 18.2 cells): 0.351* μg/mL
Max killing rate (Ba/F3-Claudin 18.2 cells): 54.17* %
maximal killing rate (CDC) [1]: about 70%
Max. Cytotoxicity (L929-Claudin 18.2 cells): 52%
